Data as given in the supplement of paper PMC11780869.

System: Bacillus subtilis
Assay: cleaved RNA product abundance (RNA/gDNA barcode ratio) relative to median wild-type variant (ratio to wild type); higher = more accumulation of the downstream cleavage product
Settings: cleavage site: cggR-gapA (positions -7 to +36 mutated)
Method in brief: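 Oligos with a 9% error rate were used to build barcoded, mutagenized RNase Y cleavage-site windows within truncated aprE or tetM reporter mRNAs, which were integrated into the B. subtilis chromosome. Cultures were grown in LB at 37°C between OD600 0.0003 and 0.3. Cleaved RNA was gel-selected, reverse transcribed and barcode-sequenced, as were genomic DNA barcodes, and UMIs were collapsed. Cleaved product abundance is the scaled RNA:gDNA barcode ratio, with the median construct carrying the unmutated site as reference.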

[1] = experiment (reporter, strain, medium): exp 2b: truncated aprE reporter, strain BJT200
[2] = experiment (reporter, strain, medium): exp 4a: truncated aprE reporter, strain BJT201 with 2% xylose (RNase J1 expressed)

| Sequence | cleaved RNA product abundance [1] | cleaved RNA product abundance [2] |
| --- | --- | --- |
| ACAGACGAAGGAGCCGCAAAGAAGTTATTAATGGATGAATAATCCCTCAATATACATATCTCTCACTTATTTAAA | 0.157 | 0.165 |
| ACAGACGAAGGAGCCGCAAAGAAGTTATTAATGGATGAATAATCCCTCAATATAGATATCTCTCACTTATTTAAA |  | 0.215 |
| ACAGACGAAGGAGCCGCAAAGAAGTTATTAATGGATGAATAATCCCTCAATATATATATCTCTCACTTATTTAAA | 0.0976 | 0.15 |
| ACAGACGAAGGAGCCGCAAAGAAGTTATTAATGGATGAATAATCCCTCAATATCAATATCTCTCACTTATTTAAA |  | 0.0753 |
| ACAGACGAAGGAGCCGCAAAGAAGTTATTAATGGATGAATAATCCCTCAATATTAATATCTCTCACTTATTTAAA |  | 0.0604 |
| ACAGACGAAGGAGCCGCAAAGAAGTTATTAATGGATGAATAATCCCTCAATTTAAATATCTCTCACTTATTTAAA | 0.0807 |  |
| ACAGACGAAGGAGCCGCAAAGAAGTTATTAATGGATGAATAATCCCTCACTATAAATATCTCTCACTTATTTAAA | 0.0821 |  |
| ACAGACGAAGGAGCCGCAAAGAAGTTATTAATGGATGAATAATCCCTCAGTATAAATATCTCTCACTTATTTAAA | 0.0853 | 0.0629 |
| ACAGACGAAGGAGCCGCAAAGAAGTTATTAATGGATGAATAATCCCTCATTATAAATATCTCTCACTTATTTAAA |  | 0.201 |
| ACAGACGAAGGAGCCGCAAAGAAGTTATTAATGGATGAATAATCCCTCCATATAAATATCTCTCACTTATTTAAA |  | 0.12 |
| ACAGACGAAGGAGCCGCAAAGAAGTTATTAATGGATGAATAATCCCTCGATATAAATATCTCTCACTTATTTAAA | 0.0785 | 0.116 |
| ACAGACGAAGGAGCCGCAAAGAAGTTATTAATGGATGAATAATCCCTCTATATAAATATCTCTCACTTATTTAAA |  | 0.143 |
| ACAGACGAAGGAGCCGCAAAGAAGTTATTAATGGATGAATAATCCCTGAATATAAATATCTCTCACTTATTTAAA | 0.0961 | 0.133 |
| ACAGACGAAGGAGCCGCAAAGAAGTTATTAATGGATGAATAATCCCTTAATATAAATATCTCTCACTTATTTAAA | 0.806 | 0.625 |
| ACAGACGAAGGAGCCGCAAAGAAGTTATTAATGGATGAATAATCCTTCAATATAAATATCTCTCACTTATTTAAA | 0.212 | 0.191 |
| ACAGACGAAGGAGCCGCAAAGAAGTTATTAATGGATGAATAATCGCTCAATATAAATATCTCTCACTTATTTAAA | 0.077 |  |
| ACAGACGAAGGAGCCGCAAAGAAGTTATTAATGGATGAATAATCTCTCAATATAAATATCTCTCACTTATTTAAA | 0.108 | 0.14 |
| ACAGACGAAGGAGCCGCAAAGAAGTTATTAATGGATGAATAATGCCTCAATATAAATATCTCTCACTTATTTAAA | 0.0612 | 0.105 |
| ACAGACGAAGGAGCCGCAAAGAAGTTATTAATGGATGAATAATTCATCAATATAAATATCTCTCACTTATTTAAA |  | 0.316 |
| ACAGACGAAGGAGCCGCAAAGAAGTTATTAATGGATGAATAATTCCTCAATATAAATATCTCTCACTTATTTAAA | 0.0864 | 0.12 |
| ACAGACGAAGGAGCCGCAAAGAAGTTATTAATGGATGAATACTCCCTCAATATAAATATCTCTCACTTATTTAAA |  | 0.0655 |
| ACAGACGAAGGAGCCGCAAAGAAGTTATTAATGGATGAATAGTCCCTCAATATAAATATCTCTCACTTATTTAAA | 0.0972 |  |
| ACAGACGAAGGAGCCGCAAAGAAGTTATTAATGGATGAATATTCCCTCAATATAAATATCTCTCACTTATTTAAA |  | 0.107 |
| ACAGACGAAGGAGCCGCAAAGAAGTTATTAATGGATGAATCATCCCTCAATATAAATATCTCTCACTTATTTAAA | 0.122 | 0.189 |
| ACAGACGAAGGAGCCGCAAAGAAGTTATTAATGGATGAATGATCCCTCAATATAAATATCTCTCACTTATTTAAA |  | 0.113 |
